# Source: US20100092465A1, “TREATMENT OF GRAFT-VERSUS-HOST DISEASE” (priority 2006, published 2010)
# What was measured:
# [1] = Pharmacokinetics of soluble receptors in female C57B1/6 mice; assay type: in vivo, mouse; conditions: for terminal / circulatory half-life, comparison in words: human Fc5 fusion versus mouse Fc1 fusion
# Protocol: Studies were performed to evaluate the pharmacokinetics of the mouse (IL-27RAm(mFc1)) and human (IL-27RA-Fc5) soluble receptors in female C57B1/6 mice.
# Serum was generated from each sample and analyzed by a qualified enzyme-linked immunosorbant assay (ELISA). The resulting mean serum concentration versus time profiles were then subjected to noncompartmental pharmacokinetic analyses. The following pharmacokinetic parameters were calculated: C0 and Cmax (extrapolated concentration at time zero and maximum serum concentration, respectively), Tmax (time to achieve maximum concentration), t1/2 λz (terminal half-life), AUC0-t (area under the concentration versus time curve from time zero to the last measurable time point), AUCINF (area under the concentration versus time curve extrapolated to infinity), Cl or Cl/F (clearance or clearance divided by bioavailable fraction, respectively), VSS or VZ/F (steady state volume of distribution or volume of distribution divided by the bioavailable fraction, respectively), and F (bioavailable fraction).
# muIL-27 = molecular target: T1, muIL-27 (Mus musculus, UniProt O35228+Q8K3I6); assay: Phospho-STAT3 neutralization assay, total human PBMCs, muIL-27; assay type: cell-based; conditions: ligand muIL-27 at EC90
# T1 sequence (O35228 19-228): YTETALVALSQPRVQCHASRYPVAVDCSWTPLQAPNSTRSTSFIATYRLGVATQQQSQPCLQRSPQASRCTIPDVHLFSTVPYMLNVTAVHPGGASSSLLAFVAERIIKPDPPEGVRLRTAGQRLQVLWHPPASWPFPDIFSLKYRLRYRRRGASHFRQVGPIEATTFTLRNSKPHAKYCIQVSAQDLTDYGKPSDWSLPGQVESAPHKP
# T1 sequence (Q8K3I6 29-234): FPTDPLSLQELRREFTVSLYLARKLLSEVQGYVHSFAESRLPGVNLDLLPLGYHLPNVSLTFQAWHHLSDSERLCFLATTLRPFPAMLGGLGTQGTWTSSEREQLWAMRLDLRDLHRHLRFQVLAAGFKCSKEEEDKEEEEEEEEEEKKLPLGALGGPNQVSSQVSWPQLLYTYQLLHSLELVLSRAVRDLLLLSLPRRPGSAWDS
# Text: Whole mouse spleens were harvested from C57 B1/6 mice and washed two times with 1×PBS before being plated out at 2×10^5 cells/well in assay media (RPMI 1640 plus 10% fetal bovine serum) in 96-well, round-bottom tissue culture plates. Total human PBMC (peripheral blood mononuclear cells) were thawed from a frozen vial collected from a leukapherisis donation and washed two times with 1×PBS before being plated out at 10^6 cells/well in assay media in 96-well, round-bottom tissue culture plates. […] Following pre-incubation, treatments were added to the plates containing the cells and incubated together at 37° C. for 15 minutes.
# Following incubation, cells were washed with ice-cold wash buffer (BIO-PLEX Cell Lysis Kit, BIO-RAD Laboratories, Hercules, Calif.) and put on ice to stop the reaction according to manufacturer's instructions. […]
# Capture beads (BIO-PLEX Phospho-Stat3 Assay, BIO-RAD Laboratories) were combined with 50 μL of 1:1 diluted lysates and added to a 96-well filter plate according to manufacture's instructions (BIO-PLEX Phosphoprotein Detection Kit, BIO-RAD Laboratories). […] After the final wash, beads were resuspended in 125 μL/well of bead suspension buffer, shaken for 30 seconds, and read on an array reader (BIO-PLEX, BIO-RAD Laboratories) according to the manufacture's instructions. Data were analyzed using analytical softward (BIO-PLEX MANAGER 3.0, BIO-RAD Laboratories). […]
substance,measurement,setting,value
"human IL-27RA-Fc5: human IL27RA extracellular domain (amino acids 1 to 512 of SEQ ID NO:5) fused to Fc5, effector minus human gamma1 Fc; SEQ ID NO:3",AUC0-120,"[1]; IP, 100 μg",1310 µg·h/mL
same,AUCINF,"[1]; IP, 100 μg",1380 µg·h/mL
same,Cl/F,"[1]; IP, 100 μg",0.0725 mL/h
same,Tmax,"[1]; IP, 100 μg",3 h
same,t1/2 λz,"[1]; IP, 100 μg",28.3 h
same,Cmax,"[1]; IP, 100 μg, serum",35200 ng/mL
same,AUC0-120,"[1]; IV, 100 μg",1400 µg·h/mL
same,AUCINF,"[1]; IV, 100 μg",1510 µg·h/mL
same,Cl,"[1]; IV, 100 μg",0.0664 mL/h
same,Vss,"[1]; IV, 100 μg",2.54 mL
same,t1/2 λz,"[1]; IV, 100 μg",34.9 h
same,Co,"[1]; IV, 100 μg, serum",122 µg/mL
same,AUC0-120,"[1]; SC, 100 μg",1130 µg·h/mL
same,AUCINF,"[1]; SC, 100 μg",1210 µg·h/mL
same,Cl/F,"[1]; SC, 100 μg",0.0828 mL/h
same,Tmax,"[1]; SC, 100 μg",6 h
same,t1/2 λz,"[1]; SC, 100 μg",29.3 h
same,Cmax,"[1]; SC, 100 μg, serum",21000 ng/mL
same,"terminal / circulatory half-life, comparison in words",[1]; listed as fusion protein comprising an Fc fragment that had been engineered to remove effe,markedly improved circulatory half-life
same,"terminal / circulatory half-life, comparison in words",[1]; listed as human Fc5 fusion protein,much longer terminal half-life
same,IC50,muIL-27,2.97 nM
